Patent US12258605B2, “Alkane oxidation by modified hydroxylases” (The California Institute of Technology, priority 2005, dated 2025)
Marks after values point to notes of the source that are not given here.

B1: 35-E11: P450 BM-3 variant, SEQ ID NO:7: 53-5H substitutions plus E464G and I710T (protein)
chain: TIKEMPQPKTFGELKNLPLLNTDKPVQALMKIADELGEIFKFEAPGCVTRYLSSQRLIKEACDESRFDKNLSQALKFFRDFSGDGLFTSWTHEINWKKAHNILLPSFSQQAMKGYHAMMVDIAVQLVQKWERLNADEHIEVSEDMTRLTLDTIGLCGFNYRFNSFYRDQPHPFIISMVRALDEVMNKLQRANPDDPAYDENKRQCQEDIKVMNDLVDKIIADRKARGEQSDDLLTQMLNGKDPETGEPLDDGNISYQIITFLIAGHETTSGLLSFALYFLVKNPHVLQKVVEEAARVLVDPVPSYKQVKQLKYVGMVLNEALRLWPTFPAFSLYAKEDTVLGGEYPLEKGDEVMVLIPQLHRDKTIWGDDVEEFRPERFENPSAIPQHAFKPFGNGQRACIGQQFALHEATLVLGMMLKHFDFEDHTNYELDIKETLTLKPEGFVVKAKSKKIPLGGIPSPSTGQSAKKVRKKAENAHNTPLLVLYGSNMGTAEGTARDLADIAMSKGFAPQVATLDSHAGNLPREGAVLIVTASYNGHPPDNAKQFVDWLDQASADEVKGVRYSVFGCGDKNWATTYQKVPAFIDETLAAKGAENIADRGEADASDDFEGTYEEWREHMWSDVAAYFNLDIENSEDNKSTLSLQFVDSAADMPLAKMHGAFSTNVVASKELQQPGSARSTRHLEIELPKEASYQEGDHLGVIPRNYEGTVNRVTARFGLDASQQIRLEAEEEKLAHLPLAKTVSVEELLQYVELQDPVTRTQLRAMAAKTVCPPHKVELEALLEKQAYKEQVLAKRLTMLELLEKYPACEMKFSEFIALLPSIRPRYYSISSSPRVDEKQASITVSVVSGEAWSGYGEYKGIASNYLAELQEGDTITCFISTPQSEFTLPKDPETPLIMVGPGTGVAPFRGFVQARKQLKEQGQSLGEAHLYFGCRSPHEDYLYQEELENAQSEGIITLHTAFSRMPNQPKTYVQHVMEQDGKKLIELLDQGAHFYICGDGSQMAPAVEATLMKSYADVHQVSEADARLWLQQLEEKGRYAKDVWAG
modifications: mutant P450 35-E11 protein sequence
B2: Wild-type BM-3: wild-type cytochrome P450 BM-3 from Bacillus megaterium, SEQ ID NO:1 (protein, listed as Bacillus megaterium)
chain: TIKEMPQPKTFGELKNLPLLNTDKPVQALMKIADELGEIFKFEAPGRVTRYLSSQRLIKEACDESRFDKNLSQALKFVRDFAGDGLFTSWTHEKNWKKAHNILLPSFSQQAMKGYHAMMVDIAVQLVQKWERLNADEHIEVPEDMTRLTLDTIGLCGFNYRFNSFYRDQPHPFITSMVRALDEAMNKLQRANPDDPAYDENKRQFQEDIKVMNDLVDKIIADRKASGEQSDDLLTHMLNGKDPETGEPLDDENIRYQIITFLIAGHETTSGLLSFALYFLVKNPHVLQKAAEEAARVLVDPVPSYKQVKQLKYVGMVLNEALRLWPTAPAFSLYAKEDTVLGGEYPLEKGDELMVLIPQLHRDKTIWGDDVEEFRPERFENPSAIPQHAFKPFGNGQRACIGQQFALHEATLVLGMMLKHFDFEDHTNYELDIKETLTLKPEGFVVKAKSKKIPLGGIPSPSTEQSAKKVRKKAENAHNTPLLVLYGSNMGTAEGTARDLADIAMSKGFAPQVATLDSHAGNLPREGAVLIVTASYNGHPPDNAKQFVDWLDQASADEVKGVRYSVFGCGDKNWATTYQKVPAFIDETLAAKGAENIADRGEADASDDFEGTYEEWREHMWSDVAAYFNLDIENSEDNKSTLSLQFVDSAADMPLAKMHGAFSTNVVASKELQQPGSARSTRHLEIELPKEASYQEGDHLGVIPRNYEGIVNRVTARFGLDASQQIRLEAEEEKLAHLPLAKTVSVEELLQYVELQDPVTRTQLRAMAAKTVCPPHKVELEALLEKQAYKEQVLAKRLTMLELLEKYPACEMKFSEFIALLPSIRPRYYSISSSPRVDEKQASITVSVVSGEAWSGYGEYKGIASNYLAELQEGDTITCFISTPQSEFTLPKDPETPLIMVGPGTGVAPFRGFVQARKQLKEQGQSLGEAHLYFGCRSPHEDYLYQEELENAQSEGIITLHTAFSRMPNQPKTYVQHVMEQDGKKLIELLDQGAHFYICGDGSQMAPAVEATLMKSYADVHQVSEADARLWLQQLEEKGRYAKDVWAG
B3: 20-D3: P450 BM-3 variant, SEQ ID NO:11; 35-E11 plus H285R (protein)
chain: TIKEMPQPKTFGELKNLPLLNTDKPVQALMKIADELGEIFKFEAPGCVTRYLSSQRLIKEACDESRFDKNLSQALKFFRDFSGDGLFTSWTHEINWKKAHNILLPSFSQQAMKGYHAMMVDIAVQLVQKWERLNADEHIEVSEDMTRLTLDTIGLCGFNYRFNSFYRDQPHPFIISMVRALDEVMNKLQRANPDDPAYDENKRQCQEDIKVMNDLVDKIIADRKARGEQSDDLLTQMLNGKDPETGEPLDDGNISYQIITFLIAGHETTSGLLSFALYFLVKNPRVLQKVVEEAARVLVDPVPSYKQVKQLKYVGMVLNEALRLWPTFPAFSLYAKEDTVLGGEYPLEKGDEVMVLIPQLHRDKTIWGDDVEEFRPERFENPSAIPQHAFKPFGNGQRACIGQQFALHEATLVLGMMLKHFDFEDHTNYELDIKETLTLKPEGFVVKAKSKKIPLGGIPSPSTGQSAKKVRKKAENAHNTPLLVLYGSNMGTAEGTARDLADIAMSKGFAPQVATLDSHAGNLPREGAVLIVTASYNGHPPDNAKQFVDWLDQASADEVKGVRYSVFGCGDKNWATTYQKVPAFIDETLAAKGAENIADRGEADASDDFEGTYEEWREHMWSDVAAYFNLDIENSEDNKSTLSLQFVDSAADMPLAKMHGAFSTNVVASKELQQPGSARSTRHLEIELPKEASYQEGDHLGVIPRNYEGTVNRVTARFGLDASQQIRLEAEEEKLAHLPLAKTVSVEELLQYVELQDPVTRTQLRAMAAKTVCPPHKVELEALLEKQAYKEQVLAKRLTMLELLEKYPACEMKFSEFIALLPSIRPRYYSISSSPRVDEKQASITVSVVSGEAWSGYGEYKGIASNYLAELQEGDTITCFISTPQSEFTLPKDPETPLIMVGPGTGVAPFRGFVQARKQLKEQGQSLGEAHLYFGCRSPHEDYLYQEELENAQSEGIITLHTAFSRMPNQPKTYVQHVMEQDGKKLIELLDQGAHFYICGDGSQMAPAVEATLMKSYADVHQVSEADARLWLQQLEEKGRYAKDVWAG
modifications: mutant P450 20-D3 protein sequence
notes: 35-E11 plus H285R

Experiments:
Type in all cases: biochemical
[1] = High-throughput dimethyl ether (DME) screen; conditions: relative to 35-E11; normalized to P450 concentration
Protocol: Cell lysates for high throughput screening were prepared as described previously (Peters et al., J. Am. Chem. Soc. 125:13442 (2003); incorporated by reference herein). High-throughput dimethyl ether (DME) screens were performed in 96 well plates as described previously. Improved mutants were selected based on an increased signal compared to 9-10A (for the saturation mutagenesis libraries) and 1-12G (for the recombination library). Reactions on octane and propane were analyzed by gas chromatography as described.
(§1) Libraries of mutants of 35-E11 were screened for phenotypes indicative of either increased product formation on small gaseous substrates slightly larger than methane. Additionally, they were screened for increased coupling of the consumption of NADPH reducing equivalents to product formation. Product formation was determined by measuring total amount of dimethyl ether hydroxylation while increased coupling was determined primarily by decreased background NADPH consumption rates (measured spectrophotometrically at 340 nm in the absence of substrate).
The relative dimethyl ether (DME) activity was measured, 1 hour after treatment with Purpald, as the average net and absorbance at 550 nm from 8 microtitre plate DME reactions of the mutant compared to 8 equivalent reactions of 35-E11. All values were normalized by measuring the P450 concentration in each well with CO binding. “Asteriks” indicate criteria used to select mutants from libraries for further characterization. The oxidation rate is measured as absorbance change at 340 nm over 1 minute upon the addition of NADPH to 8 microtitre plate wells containing P450-containing cell lysate and compared to 8 equivalent reactions of 35-E11. All values were normalized by measuring the P450 concentration in each well with CO binding. The total turnover number (TTN) was measured as the absorbance at 550 nm of methane reactions with each mutant after treatment with alcohol oxidase and
Screening libraries by spectroscopically monitoring NADPH consumption rates in the presence of the alkane often selects for mutants with NADPH oxidation rates highly uncoupled to product formation. This can be overcome through the use of surrogate substrates that mimic desired substrates, yet yield species when hydroxylated that are easily detected either directly or with the addition of a dye. For example, the screen for the high-throughput identification of mutant BM-3 enzymes with activity towards propane as described previously uses dimethyl ether (DME) as a propane surrogate substrate. Upon hydroxylation, it decomposes into methanol and dye-sensitive formaldehyde. In addition, hexyl methyl ether (HME) may be used as a surrogate for octane. It shares most of the physical properties of octane, including solubility in buffer, size, shape, and strength of its C—H bonds. When HME is hydroxylated at its methoxy carbon, it also produces an equivalent of formaldehyde which is visually detected at concentrations as low as 10 μM with the dye Purpald (see FIG. 25). Hexanal, the aldehyde product formed when the α-carbon of the hexyl group is hydroxylated, is practically unreactive towards Purpald at some concentrations used in the present screens. Formaldehyde is approximately 42 times more sensitive to Purpald than hexanal (see FIG. 26). This disproportionate response makes HME, in contrast to the symmetric ether DME, a regio-selective screen for terminal alkane hydroxylation.
High-throughput screening. Single colonies were picked and inoculated by a Qpix robot (Genetix, Beaverton, OR) into 1-mL, deep-well plates containing LB (Amp*) medium (400 μL). The plates were incubated at 30° C., 250 rpm, and 80% relative humidity. After 24 h, 50 μL from this pre-culture were used to inoculate a 2-mL, deep-well plates containing […] TB (Amp^+) medium per well. Cultures were grown at 37° C., 220 rpm, and 80% relative humidity. […]

[2] = Background NADPH oxidation rate in screen (cell lysate, no substrate); conditions: relative to 35-E11
Protocol: as §1
The relative dimethyl ether (DME) activity was measured, 1 hour after treatment with Purpald, as the average net and absorbance at 550 nm from 8 microtitre plate DME reactions of the mutant compared to 8 equivalent reactions of 35-E11. All values were normalized by measuring the P450 concentration in each well with CO binding. “Asteriks” indicate criteria used to select mutants from libraries for further characterization. The oxidation rate is measured as absorbance change at 340 nm over 1 minute upon the addition of NADPH to 8 microtitre plate wells containing P450-containing cell lysate and compared to 8 equivalent reactions of 35-E11. All values were normalized by measuring the P450 concentration in each well with CO binding. The total turnover number (TTN) was measured as the absorbance at 550 nm of methane reactions with each mutant after treatment with alcohol oxidase and […]

[3] = Reactions on laurate; conditions: laurate 2 mM, 5 hours, room temperature
Protocol: Reactions on laurate. P450PMO activity on laurate was tested mixing the substrate (2 mM) with purified protein (up to 0.5 μM) in 100 mM KPi pH 8.0 buffer, and adding NADPH to final concentration of 1 mM. Reaction mixtures were incubated for 5 hours at room temperature under gentle stirring. Analysis of the hydroxylated products was carried out by derivatization with N-methyl-N-trimethylsilylheptafluorobutyramide (Aldrich) followed by GC analysis according to a published procedure. A control experiment was carried out using wild-type P450BM3.
Products from alkane reactions were identified and quantified by gas chromatography using authentic standards and calibration curves with internal standards. For the reactions with alkanes from pentane to decane, GC analyses were carried out using a Shimadzu GC-17A gas chromatograph, Agilent HP5 column (30 m×0.32 mm×0.1 μm film), 1 μL injection, FID detector, and the following separation program: 250° C. inlet, 250° C. detector, 50° C. oven for 3 min, 5° C./min gradient to 100° C., 25° C./min gradient to 230° C., and 230° C. for 3 min. […] Organic solutions were analyzed by FID-GC. […]

Row | Molecule | Relative DME activity in screen [1] | Relative background NADPH oxidation rate [2] | hydroxylation products of laurate [3]
1 | B1 | 1 | 1 | 
2 | B2 |  |  | multiple hydroxylation products were detected
3 | B3 | 1.7* | 1.6 | 
